Reference: the DeepSol protein solubility set

Assay: soluble on expression in E. coli; label from the status in PepcDB or PDB records

| Sequence | soluble on expression in E. coli |
| --- | --- |
| MIQARSRRPLSCSLRSSSQNPIATTFLTGGKMDRIVRQILVKLLGGERSVYELIYYQDASLREFFELLNSLRDEGLIEVESGKVRITEKGREVAEKERLKFCGDVECECCEGTGLSINPYFKEILQKYSEIAKDRPETIEVYDQGFISLEGVIRRVEFVYDRGDLNGRIFVVGDDDLFGIAASLTGMPEKVAVVDIDERLINFINRVAEEYSLNVEAFVYDVQQAFPDELKRKFDVFVTDPVETIPGLKLFLSRGVSTLKGVGGAGYFGITTLEASRRKWYEIQRMIHDMGFIITDLRRRFNVYPEDEKNFFRFQEKLPIVRHLQAKVDFNWYNSTLFRIEAVKEPKPIVEGEMIIDEKVYKDDESWATPY | not soluble |
| MVGNPALAELLRAPRLIPWRNWSGAQSCLPLAREAPKDLDELVRIIRQASGRIRPVGSGHSFSALVPTDGTLLSLAYFSGLLSHDSVTLQAEFGGGTPMSQMGAPLKEIGQALVNMADIDYQTLAGAIATSTHGTGVGFGSYSAQVRGLQLVTASGEVLECDAKRNVEVFDAARVSLGALGVVTRVRLQNRAAYRLRERQWIARTEELLEDVEKNTRENQHWEMLVVTHSDYALSIALNETDEPKTPPLDPAKEGGNEFVGLIEGLDKYLSDFPETRRTLLNSLRHFARFDERVDDSYAVYANVRNVRFNEMEYSVPAEHGPACLREILALIRDKDLRTWFPIEYRYVKADDIPLSMFEGRDSCSISVHQHYSMDHHNFFAAVEPIFWKYAGRPHWGKLHGLNAHQLQGLYPRWKAFAEVRQALDPRGRFLNAHLSSILGVTKLAAALEHHHHHH | not soluble |
| MGSDKIHHHHHHLDLAPEDYYGAGNFWKEASQPKAFMLGLHAQLRSYYDMFYTLGELRGGTQRVGTSSLNTSLNYADIRSQNISEDIPGISNWNGLYSPIMQVNHFIQEVENGCTFLDDATRSRYLGQAYGMRALYYFMLYRTFGGVPLITKVDILDGKPSADKFYVERATPEATMEFIKADINKSENYFGNNTSFDAYDWSRYATLMLKAEIYMWAAKVSITGFTATGATDLQTAKTALSGIIGHFELMDNFASIFSCDNKKNTEIIFAMPFIEGEASNDGGRFLYQDAVFLGQAYGRNGKVIEKDTLNLKGTGGVFRDEYTEDFWKTFKEGDSRRDATFMEYYMKNDNGTLSEFGCVMKKRIGTINSNDNRIYISDIPVYRYADALLMMAEIENGLNNPCASYINEVRKRAYGDTFEENKYTEGSYAENELAILQERDKEFVSEGKRWFDVLRMHDASGRSLVFSANANYPGTNPILGTEEAYKMLWPVNIGTLNVNPLLTQTPGYGKK | not soluble |
| MVEEQLSLSGVEEIAPKIETPKIEKRTVKERRQQVLTVLIHMLHSERGMERMTTARLAKEVGVSEAALYRYFPSKTKMFEALIEHIESTLLSRITASMRNETQTMNRIHDILQTILDFARKNPGLTRVLTGHALMFEEAQLQARVAQFFDRLEMQFVNILQMRKLREGRAFNVDERIIASHLVTLCEGQFMRYVRTNFRLNSSQSFEQQWRFIEPLFA | not soluble |
| MRYGFMKVAAAVPFVKVADCEYNIERIDRMVHEADAKGVEIMTFPELSITGYSCGDLFFQPFLQERANEALCRLVEQTANTTVMVIVGMPLRVEEKLFNSAVVFQQGKILGAIPKTYLPNYREFQEARWFSPAHTLQYSTISIGQHSVPIGRNLIFKCGTVGVGIEICEDMWTPFTPGTRLCLYGAEVIFNLSSSNENAGKHSYLRSLISGLSSQGICAYVYASSGYGESSTDIVFTGKAFIAEAGEIVEEMERFRYEERMIISDIDVSRIQTERLINSSFKAAVTFHTHDEKFNQLPFKLRSRQESLPMTRRVDRNPFMPEDKDRKERSREMINIQVCGLMQRLLHMGAEHAVIGISGGLDSALALIVCAQAFDRLDLPRKNIIAVTMPGFGTSDRTYRNAFALMEAIGVTIKEIDIKEACLRHFEAIGHNPEVQDTTFENTQARERTQILMNLANIYNAPVIGTGDLSELALGWVTYNGDHMSMYAVNAGIAKTTVQILVDHIAHSGWLDEAASAVLLDIVRTPISPELKPVGQLEHHHHHH | not soluble |
| MKSLGADLDKALGRLSGGLYIITAKKGDVSSAMLASWVNQASFKPLGFSIAVAKDRAIESLMQVGDRFVLNVLEEGNYQPLMRHFLKRFAPGADRFEGVKTQPAENGAPILGDALAYMECEVVSRMDCGDHWAVYSTVYAGRVSKSEALTAVHHRKVGNHYLEHHHHHH | not soluble |
| GPSDMYVHVGNLIYRNLHLFNSEMHESILVSYSSDLIIYRTNTVGDDYIPSCDCTQATYYCKHKNRYFPITVTSHDWYEIQESEYYPKHIQYNLLIGEGPCEPGDCGGKLLCKHGVIGIVTAGGDNHVAFIDLRHFHCAEEQ | soluble |
| MWRLTRKIGTRIHISNQLSPIFNKAIGTVPVFRFYSSSPEQKYRKKLLEEAQKQGFNSIEELKNHLKETIESKKREFNKIDPLKELEDYQQKTQMENNNSKHLMTKSRSPLDPSAPKVPFKTLDSFLDVGKLKDLSKQEVEFLWRARWAQKDNTLCAVIPVSVYDKMMANARNNPIFVLPLPRQVQSEDAKPNEEQGMELHYIQWQFVGPQTTHCMMTSLAEYKLHQEFARPHTTLQFHSDLVKDKGIVFMNGHVEPDTNVNVQDAQLLLLNVQRFYGAMGEETPVAKQRVQLLRDFSKASPGFTVEKLISLSQSMEN | soluble |
| MPRVSASPRTPPPPVMDLRMSEDSAFPIDFSALTRAQLENITRVCHGSAGSVFQQAGLFTSAGLPIVNNVRLKLAQRDADAFTTFEELINLFEDFYGRLALIEDTQNNLLLSALSAGDEPGETLQ | not soluble |
| MAHHHHHHMGVDVGESAIGVDAVARPIGYGPFSAAAKARLAREKAHKAVETCDSAAAAASATVMKNVSLDTNLYLRLSLAGLPHPSQLQEWAYTSPEWRLAFVRLYRTILRLHNKAVAVSLRTARRQGSEAALSAATGMRATSQTTVAGAAVAATGADNSLAEDKDDYFLRYLLTPDQQEFGNRFVQEEFARHTDADAVAASIFYASWYEYVLQLASGVTAREMTEKEKRILTDEQKETLNSLRSAFLDLRSSQRPKYMP | not soluble |
| MIAITGATGQLGQHVIENLLKTTPASHLVAIVRNPKKAAPLSQRGIAVRQADYANEAALTTALQGVDKLLLISSSEVGQRTAQHRNVIQAAIAAKVKFIAYTSLLHADKSPLALADEHIETEKMLAESGIPHTLLRNGWYTENYLASVPAALKHGVFIGAAGEGKIASAMRADYAAAAARVIREEGHAGNVYELAGDDAWTLSQLADELTHQSGKKIVYQNLSEVDFAAALKGAGLPDGLADMLANSDAGAAKGGLFDDSHTLRKLIGRPTTTLTESLRSVL | not soluble |
| MFDIILEIVILLFNLLIQNLISLIKYALPYSLLPKKDLYRKKVLITGAGNGLGKLLAQKFAARGATLILWDINLQSVDELKNEIRGNQGEAHSYEVNLCDPGKIAQVGQQVINDIGKVDILVNNAGIATAKMILDSSENEINRSFDVNVKAHFYTVQQFLPAMLKDNNGHIVTIASAAGKMGSSGLADYSSTKHAAVGFHDSLVAEIMESEKNGVKTTLVCPYYVHTSMFDATGAATRFPWIFPILDTDYVVQKIFEAIETEQEFLVTPRAFYLVFAGIQILPYKAQAMVAQFFGLVQNLERFHK | not soluble |
| MKNVGFIGWRGMVGSVLMQRMVEERDFDAIRPVFFSTSQLGQAAPSFGGTTGTLQDAFDLEALKALDIIVTCQGGDYTNEIYPKLRESGWQGYWIDAASSLRMKDDAIIILDPVNQDVITDGLNNGIRTFVGGNCTVSLMLMSLGGLFANDLVDWVSVATYQAASGGGARHMRELLTQMGHLYGHVADELATPSSAILDIERKVTTLTRSGELPVDNFGVPLAGSLIPWIDKQLDNGQSREEWKGQAETNKILNTSSVIPVDGLCVRVGALRCHSQAFTIKLKKDVSIPTVEELLAAHNPWAKVVPNDREITMRELTPAAVTGTLTTPVGRLRKLNMGPEFLSAFTVGDQLLWGAAEPLRRMLRQLA | soluble |
| MGSDKIHHHHHHMSDIQLSLLNDFQRGFPLTSTPFDAIAQRLGLDVEALLDTLRRLTREGVVSRVGAVFRPNRVGVSTLAAMAVPEGRLDEVARLVSARPEVNHNYEREHRFNLWFVAAAANPAQLEQALHDIEQQTGLAAMRLPMVQDYHIDLGFDLRRSVGLTDRHQQKAAPSRALELDALDYVLVEAIQEGLPLVARPYAEVAAFIGTSEADVLIRLGRLLDHGVIKRLGIVVRHHELGFRANAMVVWNIPDEQVDEFGRCVGASGLVNLCYQRPRRLPEWPYNLFCMIHGKDRDAVLEHLDHLRDQCGLTDFPCEVLFSKRRFKQTGARYLAAQPKAAAEAT | not soluble |
